Where no end group is shown, it is not given here.

To fix the notation:
T1: Human SP9155 receptor (human, UniProt Q96P65 1-431)
T1 sequence: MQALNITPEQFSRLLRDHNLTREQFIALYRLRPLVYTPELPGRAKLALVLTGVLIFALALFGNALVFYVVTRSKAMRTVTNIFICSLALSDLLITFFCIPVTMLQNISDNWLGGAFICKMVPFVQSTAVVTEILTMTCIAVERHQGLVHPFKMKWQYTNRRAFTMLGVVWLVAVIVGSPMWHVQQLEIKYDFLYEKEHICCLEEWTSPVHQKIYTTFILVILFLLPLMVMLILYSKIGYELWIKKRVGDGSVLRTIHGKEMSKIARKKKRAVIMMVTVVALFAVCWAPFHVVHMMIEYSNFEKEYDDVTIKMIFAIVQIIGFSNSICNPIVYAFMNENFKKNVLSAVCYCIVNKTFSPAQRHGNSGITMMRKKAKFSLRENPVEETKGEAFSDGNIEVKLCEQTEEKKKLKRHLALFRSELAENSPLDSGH

The target of this test is T1, Human SP9155 receptor. Kind of test: cell-based or functional assay.
Consider KKGGFSFRF-NH2 [Human P517], for which the “EC50 (nM), Ca2+ flux (FLIPR) in HEK293 cells transfected with SP9155 receptor” value amounted to 235 nM. In the case of GGFSFRF-NH2 [Human P52] it was 245 nM; in that of KGGFSFRF-NH2 [Human P513], 258 nM. For EHAGCRFRF-NH2 [Human P51], the “EC50 (nM), Ca2+ flux (FLIPR) in HEK293 cells transfected with SP9155 receptor” value stood at 1560 nM.

(Values after patent US20030223992A1 (SCHERING, published 2003).)
